Data published in article PMC3644210 (Biochemical pharmacology, 2012).
Ends that are not written are not given here.

Columns and labels:
[1] = comparison value; source not explicitly stated; cited from earlier work
[2] = target: Kv1.1 (Homo sapiens, UniProt Q09470); format: cell-based
[3] = target: Kv1.5 (wildtype) (UniProt P22460)
[4] = target: Kv1.1 E353T (UniProt Q09470)
[5] = target: Kv1.1 Y379V (UniProt Q09470)
[6] = target: Kv1.5 R487T (UniProt P22460)
Chain of Kv1.5 R487T (P22460 whole entry R487T): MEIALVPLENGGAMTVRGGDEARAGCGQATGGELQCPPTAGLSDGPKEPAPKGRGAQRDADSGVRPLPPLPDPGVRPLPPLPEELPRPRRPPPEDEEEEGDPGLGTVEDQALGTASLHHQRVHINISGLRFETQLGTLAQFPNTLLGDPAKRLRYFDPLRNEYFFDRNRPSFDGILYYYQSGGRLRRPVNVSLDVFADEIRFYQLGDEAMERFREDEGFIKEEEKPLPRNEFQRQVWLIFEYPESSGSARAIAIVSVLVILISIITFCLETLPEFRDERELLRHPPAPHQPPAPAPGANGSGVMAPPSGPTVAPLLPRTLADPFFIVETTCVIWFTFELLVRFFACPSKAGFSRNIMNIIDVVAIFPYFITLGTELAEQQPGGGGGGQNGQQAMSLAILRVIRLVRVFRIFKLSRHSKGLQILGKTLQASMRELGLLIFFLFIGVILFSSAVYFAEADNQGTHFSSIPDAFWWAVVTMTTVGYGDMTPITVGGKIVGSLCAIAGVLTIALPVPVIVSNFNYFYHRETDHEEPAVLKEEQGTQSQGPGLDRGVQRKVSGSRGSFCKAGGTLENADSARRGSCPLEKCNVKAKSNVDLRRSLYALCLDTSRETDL

Chain of Kv1.1 (Q09470 whole entry): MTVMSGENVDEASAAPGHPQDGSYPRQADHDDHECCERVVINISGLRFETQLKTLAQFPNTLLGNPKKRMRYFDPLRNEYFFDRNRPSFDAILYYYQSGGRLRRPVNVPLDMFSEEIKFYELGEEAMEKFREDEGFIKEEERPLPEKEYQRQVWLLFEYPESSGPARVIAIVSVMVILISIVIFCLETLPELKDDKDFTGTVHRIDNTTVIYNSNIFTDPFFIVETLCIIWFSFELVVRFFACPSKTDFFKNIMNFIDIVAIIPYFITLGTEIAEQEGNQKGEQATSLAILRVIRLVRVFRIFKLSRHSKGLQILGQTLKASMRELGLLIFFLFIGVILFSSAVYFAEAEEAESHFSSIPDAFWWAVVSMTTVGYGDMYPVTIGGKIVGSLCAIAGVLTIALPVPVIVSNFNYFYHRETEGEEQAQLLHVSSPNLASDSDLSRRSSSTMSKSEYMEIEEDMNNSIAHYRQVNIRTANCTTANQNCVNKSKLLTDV
Chain of Kv1.1 E353T (Q09470 whole entry E353T): as the sequence (Q09470 whole entry) above, with E353T counted along it
Chain of Kv1.5 (wildtype) (P22460 whole entry): as the sequence (P22460 whole entry R487T) above, with T487R counted along it
Chain of Kv1.1 Y379V (Q09470 whole entry Y379V): as the sequence (Q09470 whole entry) above, with Y379V counted along it

## OcyC8: κ-KTx2 scorpion toxin from Opisthacanthus cayaporum (YDACVNACLEHHPNVRECEEACKNPVPP; UniProt P86110 43-70, looked up)
[1]
  pI of OcyC8: 4.92

## CC[N+](CC)(CC)CC [TEA, Tetraethylammonium]
[2]; 0.4 mM TEA, n = 6, 250-ms steps to +10 mV
  reduction of the K+ current by TEA: 55 ± 2%
[2]; read-out: IC50 of TEA on Kv1.1, Kv1.1, source of the IC50 not stated
  IC50: 400 µM

## SCKKECSGSRRTKKCMQKCNREHGH-NH2 (ends and bridges not checked) [Hl15-1-1 (Heterometrus laoticus toxin)]
[3]
  percent inhibition of the K+ current by 30 μM Hl15-1-1 (whole-cell patch clamp): 1%
[4]
  percent inhibition of the K+ efflux by 30 μM Hl15-1-1 (whole-cell patch clamp): 32%
[5]
  percent inhibition of the K+ efflux by 30 μM Hl15-1-1 (whole-cell patch clamp): 6.1%
[6]
  percent inhibition of the K+ current by 30 μM Hl15-1-1 (whole-cell patch clamp): 26.3%
